Experimental data: article PMC11612794

Target: 3xFLAG-CENP-T^Δ161–216 (chicken) (UniProt F1NPG5)

In the case of “Mis12 complex (Mis12C) containing GFP-Dsn1^WT (from UniProt Q1T769 1-210; A0A8V0ZA15 1-290)”, the GFP-Dsn1 (Mis12C) level at mitotic kinetochores in CENP-C^Δ73 cells after IAA is reported as 15%.
